The record followed here is article PMC2999606.

This assay has as its target Flag-tagged chicken p53 (chicken) (UniProt P10360).
UniProt P10360, sequence (P10360 whole entry): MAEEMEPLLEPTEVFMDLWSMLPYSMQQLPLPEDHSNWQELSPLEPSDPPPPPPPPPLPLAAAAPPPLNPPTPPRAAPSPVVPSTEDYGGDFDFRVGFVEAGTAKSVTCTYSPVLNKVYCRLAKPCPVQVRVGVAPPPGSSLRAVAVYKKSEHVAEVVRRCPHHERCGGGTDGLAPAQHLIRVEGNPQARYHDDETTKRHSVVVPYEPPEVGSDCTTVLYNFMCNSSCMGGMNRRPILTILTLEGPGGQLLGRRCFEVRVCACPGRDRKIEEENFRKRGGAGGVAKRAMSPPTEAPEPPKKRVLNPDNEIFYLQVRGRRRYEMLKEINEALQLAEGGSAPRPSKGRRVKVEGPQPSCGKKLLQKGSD

With GFP-tagged Meq (natural protein), the p53-mediated apoptosis (TUNEL assay, percent of apoptotic cells) in CEFs co-transfected with Flag-p53 and Flag-Meq at 1:10 molar ratio; approximately 46% with Flag-p53 alone is 12 % of cells.
